Measurements published in IntAct's records for PubMed 20696164.

B1: E3 ubiquitin-protein ligase SH3RF3 (Homo sapiens), Q8TEJ3 (parent)
chain: MLLGASWLCASKAAAAAAQSEGDEDRPGERRRRRAAATAAGAGEDMDESSLLDLLECSVCLERLDTTAKVLPCQHTFCRRCLESIVCSRHELRCPECRILVGCGVDELPANILLVRLLDGIRQRPRAGTSPGGSPPARPIPGQSAAPTLAGGGGGAAGSTPGSPVFLSAAAGSTAGSLRELATSRTAPAAKNPCLLPYGKALYSYEGKEPGDLKFNKGDIIVLRRKVDEQWYHGELHGTQGFLPASYIQCIQPLPHAPPQGKALYDFEMKDKDQDKDCLTFTKDEILTVLRRVDENWAEGMLGDKIGIFPLLYVELNDSAKQLIEMDKPCPAAASSCNASLPSDSGAVASVAPSPTLSSSGAVSAFQRRVDGKKNTKKRHSFTALSVTHRSSQAASHRHSMEISAPVLISSSDPRAAARIGDLAHLSCAAPTQDVSSSAGSTPTAVPRAASVSGEQGTPPKVQLPLNVYLALYAYKPQKSDELELHKGEMYRVLEKCQDGWFKGASLRTGVSGVFPGNYVTPVSRVPAGGAGPPRNNVVGGSPLAKGITTTMHPGSGSLSSLATATRPALPITTPQAHAQHPTASPPTGSCLRHSAQPTASQARSTISTAAHSAAQAQDRPTATVSPLRTQNSPSRLPATSLRPHSVVSPQHSHQPPVQMCPRPAIPLTSAASAITPPNVSAANLNGEAGGGPIGVLSTSSPTNTGCKLDEKKSEKKEKKSGLLKLLAGASTKKKSRSPPSVSPTHDPQVAVDALLQGAVGPEVSSLSIHGRAGSCPIESEMQGAMGMEPLHRKAGSLDLNFTSPSRQAPLSMAAIRPEPKLLPRERYRVVVSYPPQSEAEIELKEGDIVFVHKKREDGWYKGTLQRNGRTGLFPGSFVESF
B2: E3 ubiquitin-protein ligase SH3RF1 (Homo sapiens), Q7Z6J0 (parent)
chain: MDESALLDLLECPVCLERLDASAKVLPCQHTFCKRCLLGIVGSRNELRCPECRTLVGSGVEELPSNILLVRLLDGIKQRPWKPGPGGGSGTNCTNALRSQSSTVANCSSKDLQSSQGGQQPRVQSWSPPVRGIPQLPCAKALYNYEGKEPGDLKFSKGDIIILRRQVDENWYHGEVNGIHGFFPTNFVQIIKPLPQPPPQCKALYDFEVKDKEADKDCLPFAKDDVLTVIRRVDENWAEGMLADKIGIFPISYVEFNSAAKQLIEWDKPPVPGVDAGECSSAAAQSSTAPKHSDTKKNTKKRHSFTSLTMANKSSQASQNRHSMEISPPVLISSSNPTAAARISELSGLSCSAPSQVHISTTGLIVTPPPSSPVTTGPSFTFPSDVPYQAALGTLNPPLPPPPLLAATVLASTPPGATAAAAAAGMGPRPMAGSTDQIAHLRPQTRPSVYVAIYPYTPRKEDELELRKGEMFLVFERCQDGWFKGTSMHTSKIGVFPGNYVAPVTRAVTNASQAKVPMSTAGQTSRGVTMVSPSTAGGPAQKLQGNGVAGSPSVVPAAVVSAAHIQTSPQAKVLLHMTGQMTVNQARNAVRTVAAHNQERPTAAVTPIQVQNAAGLSPASVGLSHHSLASPQPAPLMPGSATHTAAISISRASAPLACAAAAPLTSPSITSASLEAEPSGRIVTVLPGLPTSPDSASSACGNSSATKPDKDSKKEKKGLLKLLSGASTKRKPRVSPPASPTLEVELGSAELPLQGAVGPELPPGGGHGRAGSCPVDGDGPVTTAVAGAALAQDAFHRKASSLDSAVPIAPPPRQACSSLGPVLNESRPVVCERHRVVVSYPPQSEAELELKEGDIVFVHKKREDGWFKGTLQRNGKTGLFPGSFVENI

Variants of: B1
Settings: with ubc_human UBC

Variant | effect of a mutation on the interaction
C73A | decreasing interaction
H75A | decreasing interaction

Variants of: B1
Settings: with rac1_human RAC1, P63000

Variant | effect of a mutation on the interaction
I403N | disrupting interaction
S404P | disrupting interaction
P406A | disrupting interaction

Variants of: B1
Settings: with rac1_human RAC1, P63000
Remark: another data set of the same source

Variant | effect of a mutation on the interaction
L385A | decreasing interaction

Variants of: B1
Settings: with rac1_human RAC1, P63000
Remark: another data set of the same source

Variant | effect of a mutation on the interaction
P414A | decreasing interaction

Variants of: B2
Settings: with ubc_human UBC

Variant | effect of a mutation on the interaction
C28A | decreasing interaction
H30A | decreasing interaction
